Laboratory results: patent publication US20140087995A1 (published 2014)
Numbered stars: 1 amine (or outer) side, 2 acyl side, 3 side chain; on linkers, the order of the positions; unused ones are H or OH. Bridge positions count the residues as written; N and C are the ends. Side chains are listed from the residue outwards. Ends that are not written are not given here. * marks the point of attachment. C20 diacid = O=C(O)CCCCCCCCCCCCCCCCCCC(=O)*; γGlu = O=C(O)[C@H](CCC(=O)[*:2])N[*:1]; AEEA = NCCOCCOCC(=O)O

B1: N^ε1-[2-[2-[2-[[(4S)-4-carboxy-4-(19-carboxynonadecanoylamino)butanoyl]amino]ethoxy]ethoxy]acetyl]-[Arg17,Pro21,Pro27,Glu35]-h-amylin (peptide)
peptide: K([AEEA-γGlu-C20 diacid])CNTATCATQRLANFLRHSSPNFGAIPSSTNVGSETY-NH2
modifications: disulfide 2-7; N-terminus assumed
SMILES: CC[C@H](C)[C@H](NC(=O)[C@H](C)NC(=O)CNC(=O)[C@H](Cc1ccccc1)NC(=O)[C@H](CC(N)=O)NC(=O)[C@@H]1CCCN1C(=O)[C@H](CO)NC(=O)[C@H](CO)NC(=O)[C@H](Cc1c[nH]cn1)NC(=O)[C@H](CCCNC(=N)N)NC(=O)[C@H](CC(C)C)NC(=O)[C@H](Cc1ccccc1)NC(=O)[C@H](CC(N)=O)NC(=O)[C@H](C)NC(=O)[C@H](CC(C)C)NC(=O)[C@H](CCCNC(=N)N)NC(=O)[C@H](CCC(N)=O)NC(=O)[C@@H](NC(=O)[C@H](C)NC(=O)[C@@H]1CSSC[C@H](NC(=O)[C@@H](N)CCCCNC(=O)COCCOCCNC(=O)CC[C@H](NC(=O)CCCCCCCCCCCCCCCCCCC(=O)O)C(=O)O)C(=O)N[C@@H](CC(N)=O)C(=O)N[C@@H]([C@@H](C)O)C(=O)N[C@@H](C)C(=O)N[C@@H]([C@@H](C)O)C(=O)N1)[C@@H](C)O)C(=O)N1CCC[C@H]1C(=O)N[C@@H](CO)C(=O)N[C@@H](CO)C(=O)N[C@H](C(=O)N[C@@H](CC(N)=O)C(=O)N[C@H](C(=O)NCC(=O)N[C@@H](CO)C(=O)N[C@@H](CCC(=O)O)C(=O)N[C@H](C(=O)N[C@@H](Cc1ccc(O)cc1)C(N)=O)[C@@H](C)O)C(C)C)[C@@H](C)O
notes: modifications are with respect to human amylin; also called compound 26
B2: N^ε1-[2-[2-[2-[[2-[2-[2-[[(4S)-4-carboxy-4-(19-carboxynonadecanoylamino)butanoyl]amino]ethoxy]ethoxy]acetyl]amino]ethoxy]ethoxy]acetyl]-[Arg17,Pro21,Pro27,Glu35 … (peptide)
peptide: K([AEEA-AEEA-γGlu-C20 diacid])CNTATCATQRLANFLRHSSPNFGAIPSSTNVGSETY-NH2
modifications: disulfide 2-7; N-terminus assumed
SMILES: CC[C@H](C)[C@H](NC(=O)[C@H](C)NC(=O)CNC(=O)[C@H](Cc1ccccc1)NC(=O)[C@H](CC(N)=O)NC(=O)[C@@H]1CCCN1C(=O)[C@H](CO)NC(=O)[C@H](CO)NC(=O)[C@H](Cc1c[nH]cn1)NC(=O)[C@H](CCCNC(=N)N)NC(=O)[C@H](CC(C)C)NC(=O)[C@H](Cc1ccccc1)NC(=O)[C@H](CC(N)=O)NC(=O)[C@H](C)NC(=O)[C@H](CC(C)C)NC(=O)[C@H](CCCNC(=N)N)NC(=O)[C@H](CCC(N)=O)NC(=O)[C@@H](NC(=O)[C@H](C)NC(=O)[C@@H]1CSSC[C@H](NC(=O)[C@@H](N)CCCCNC(=O)COCCOCCNC(=O)COCCOCCNC(=O)CC[C@H](NC(=O)CCCCCCCCCCCCCCCCCCC(=O)O)C(=O)O)C(=O)N[C@@H](CC(N)=O)C(=O)N[C@@H]([C@@H](C)O)C(=O)N[C@@H](C)C(=O)N[C@@H]([C@@H](C)O)C(=O)N1)[C@@H](C)O)C(=O)N1CCC[C@H]1C(=O)N[C@@H](CO)C(=O)N[C@@H](CO)C(=O)N[C@H](C(=O)N[C@@H](CC(N)=O)C(=O)N[C@H](C(=O)NCC(=O)N[C@@H](CO)C(=O)N[C@@H](CCC(=O)O)C(=O)N[C@H](C(=O)N[C@@H](Cc1ccc(O)cc1)C(N)=O)[C@@H](C)O)C(C)C)[C@@H](C)O
notes: modifications are with respect to human amylin; also called compound 25
B3: N^α1N^α1-[(4S)-4-carboxy-4-(19-carboxynonadecanoylamino)butanoyl]-[Glu14,Arg17,Pro21,Pro27,Glu35]-h-amylin (peptide)
peptide: {C20 diacid-γGlu}-KCNTATCATQRLAEFLRHSSPNFGAIPSSTNVGSETY-NH2
modifications: disulfide 2-7
SMILES: CC[C@H](C)[C@H](NC(=O)[C@H](C)NC(=O)CNC(=O)[C@H](Cc1ccccc1)NC(=O)[C@H](CC(N)=O)NC(=O)[C@@H]1CCCN1C(=O)[C@H](CO)NC(=O)[C@H](CO)NC(=O)[C@H](Cc1c[nH]cn1)NC(=O)[C@H](CCCNC(=N)N)NC(=O)[C@H](CC(C)C)NC(=O)[C@H](Cc1ccccc1)NC(=O)[C@H](CCC(=O)O)NC(=O)[C@H](C)NC(=O)[C@H](CC(C)C)NC(=O)[C@H](CCCNC(=N)N)NC(=O)[C@H](CCC(N)=O)NC(=O)[C@@H](NC(=O)[C@H](C)NC(=O)[C@@H]1CSSC[C@H](NC(=O)[C@H](CCCCN)NC(=O)CC[C@H](NC(=O)CCCCCCCCCCCCCCCCCCC(=O)O)C(=O)O)C(=O)N[C@@H](CC(N)=O)C(=O)N[C@@H]([C@@H](C)O)C(=O)N[C@@H](C)C(=O)N[C@@H]([C@@H](C)O)C(=O)N1)[C@@H](C)O)C(=O)N1CCC[C@H]1C(=O)N[C@@H](CO)C(=O)N[C@@H](CO)C(=O)N[C@H](C(=O)N[C@@H](CC(N)=O)C(=O)N[C@H](C(=O)NCC(=O)N[C@@H](CO)C(=O)N[C@@H](CCC(=O)O)C(=O)N[C@H](C(=O)N[C@@H](Cc1ccc(O)cc1)C(N)=O)[C@@H](C)O)C(C)C)[C@@H](C)O
notes: modifications are with respect to human amylin; also called compound 22

Experiments:
rat calcitonin receptor [1] = target: T1, rat calcitonin receptor (rat, UniProt P32214 25-516); assay: IC50 at rCTR divided by IC50 at rAmylin-R (reference)
T1 construct: whole, on cells; Membranes of BHK tk'ts 13 cells transiently transfected with the rat calcitonin receptor; also called rCTR; rat calcitonin (a) receptor
T1 sequence (looked up): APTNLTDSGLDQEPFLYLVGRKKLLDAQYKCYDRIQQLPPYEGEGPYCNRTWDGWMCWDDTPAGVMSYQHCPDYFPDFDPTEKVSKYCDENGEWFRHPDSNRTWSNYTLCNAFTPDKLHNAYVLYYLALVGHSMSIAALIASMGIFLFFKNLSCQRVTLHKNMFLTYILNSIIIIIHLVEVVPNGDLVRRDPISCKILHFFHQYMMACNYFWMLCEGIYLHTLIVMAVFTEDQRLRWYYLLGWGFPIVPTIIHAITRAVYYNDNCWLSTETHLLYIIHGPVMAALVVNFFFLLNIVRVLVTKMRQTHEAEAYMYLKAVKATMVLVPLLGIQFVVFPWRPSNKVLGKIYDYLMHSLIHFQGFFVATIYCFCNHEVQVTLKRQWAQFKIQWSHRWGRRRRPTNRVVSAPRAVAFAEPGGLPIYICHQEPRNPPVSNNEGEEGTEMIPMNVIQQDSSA

[2] = target: T2, human calcitonin receptor (human, UniProt P30988 25-474); assay: IC50 at hCTR divided by IC50 at hAmylin-R (reference)
T2 construct: whole, on cells; Membranes of a BHK tk'ts 13 cell line stably transfected with the human calcitonin receptor; also called hCTR; hCT
T2 sequence (looked up): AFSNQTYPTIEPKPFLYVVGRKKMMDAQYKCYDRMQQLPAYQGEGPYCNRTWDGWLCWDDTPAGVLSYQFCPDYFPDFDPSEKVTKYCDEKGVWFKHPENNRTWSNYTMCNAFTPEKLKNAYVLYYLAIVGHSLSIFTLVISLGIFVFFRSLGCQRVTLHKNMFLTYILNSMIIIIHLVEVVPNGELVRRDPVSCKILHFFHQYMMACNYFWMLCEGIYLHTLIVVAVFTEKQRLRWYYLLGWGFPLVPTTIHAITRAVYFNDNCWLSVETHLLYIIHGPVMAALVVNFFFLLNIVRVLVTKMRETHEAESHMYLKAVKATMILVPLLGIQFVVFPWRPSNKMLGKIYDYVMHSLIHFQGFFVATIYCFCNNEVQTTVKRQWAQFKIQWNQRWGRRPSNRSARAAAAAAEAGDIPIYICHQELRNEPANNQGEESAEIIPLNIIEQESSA
In short: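 Membranes (35 ng/μL final) + SPA beads, 50 mM Hepes pH 7.4 buffer with 1 mM CaCl2, 5 mM MgCl₂, 0.1% OA, 0.02% Tween20; 120 min, 25° C, shaking; centrifuged, counted; IC₅₀ by one-site binding competition.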

[3] = target: T3, rat amylin receptor (rat calcitonin receptor + rat RAMP 3) (rat, UniProt P32214 25-516; Q9JJ73 23-147); assay: SPA competition vs 125I-rat amylin, membranes with rat CTR + rat RAMP3 (Assay VI)
T3 construct: whole, on cells; Membranes of BHK tk'ts 13 cells transiently transfected with the rat calcitonin receptor and rat RAMP 3; also called rAmylin-R; rat amylin 3(a) receptor
T3 sequence (looked up) 1: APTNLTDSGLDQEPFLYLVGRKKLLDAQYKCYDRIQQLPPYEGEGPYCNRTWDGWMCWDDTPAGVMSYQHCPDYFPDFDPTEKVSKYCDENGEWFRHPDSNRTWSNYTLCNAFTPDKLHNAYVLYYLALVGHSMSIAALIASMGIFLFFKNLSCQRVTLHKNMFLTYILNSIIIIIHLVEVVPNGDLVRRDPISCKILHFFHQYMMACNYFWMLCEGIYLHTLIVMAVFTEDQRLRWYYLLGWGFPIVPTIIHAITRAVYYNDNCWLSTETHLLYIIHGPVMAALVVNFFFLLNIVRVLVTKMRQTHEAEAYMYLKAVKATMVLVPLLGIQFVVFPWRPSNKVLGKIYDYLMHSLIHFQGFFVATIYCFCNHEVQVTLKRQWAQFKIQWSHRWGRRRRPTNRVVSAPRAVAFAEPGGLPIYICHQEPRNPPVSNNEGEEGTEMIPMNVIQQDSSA
T3 sequence (looked up) 2: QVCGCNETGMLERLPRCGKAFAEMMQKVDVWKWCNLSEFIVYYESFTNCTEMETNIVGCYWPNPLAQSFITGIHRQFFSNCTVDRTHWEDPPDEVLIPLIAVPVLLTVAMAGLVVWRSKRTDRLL

rat calcitonin receptor [4] = target: T1, rat calcitonin receptor; assay: SPA competition vs 125I-calcitonin, membranes with rat CTR (Assay VIII)

Row | Binder | Ratio rCT/rAmylin binding (rat calcitonin receptor [1]) | Ratio hCT/hAmylin binding [2] | IC50 [3] | IC50 (rat calcitonin receptor [4])
1 | B1 | 309 | 47.5 | 0.491 nM | 152 nM
2 | B2 | 37.7 | 56.5 | 3.48 nM | 131 nM
3 | B3 | 28.5 | 12.3 | 2.19 nM | 62.5 nM
